Assay results as given in article PMC10681739, “High-throughput data and modeling reveal insights into the mechanisms of cooperative DNA-binding by transcription factor proteins”.

T1: ETS1 x2 (Homo sapiens, UniProt P14921)
T1 sequence: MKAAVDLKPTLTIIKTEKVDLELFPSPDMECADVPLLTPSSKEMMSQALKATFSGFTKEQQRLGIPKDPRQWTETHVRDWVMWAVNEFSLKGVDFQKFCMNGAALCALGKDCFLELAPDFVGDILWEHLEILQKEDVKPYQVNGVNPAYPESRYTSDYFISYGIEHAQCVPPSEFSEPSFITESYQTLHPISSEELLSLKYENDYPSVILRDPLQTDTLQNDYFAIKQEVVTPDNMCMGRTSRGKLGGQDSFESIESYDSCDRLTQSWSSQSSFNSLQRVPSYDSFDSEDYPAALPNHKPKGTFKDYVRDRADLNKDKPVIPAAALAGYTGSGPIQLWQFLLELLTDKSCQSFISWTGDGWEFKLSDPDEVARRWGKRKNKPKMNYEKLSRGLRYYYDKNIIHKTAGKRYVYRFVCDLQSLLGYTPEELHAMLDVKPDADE

B1: Table S4 A row 305 (dsDNA)
DNA 1: GCCGCTTCCTGTTCAGAGGACAGACAGCTTCCTGAC
DNA 2: GTCAGGAAGCTGTCTGTCCTCTGAACAGGAAGCGGC
B2: Table S4 A row 2195 (dsDNA)
DNA 1: TGAAGAAGCACCGGAAATGCTTCCGATCGCTTCATA
DNA 2: TATGAAGCGATCGGAAGCATTTCCGGTGCTTCTTCA
B3: Table S4 A row 1254 (dsDNA)
DNA 1: TGAAAATGAGCATTTCCTGTTTCCTCAGGCATTTCT
DNA 2: AGAAATGCCTGAGGAAACAGGAAATGCTCATTTTCA
B4: Table S4 A row 743 (dsDNA)
DNA 1: CCCCACTTCCTGTTGACACAATAGGCAGGATATTAA
DNA 2: TTAATATCCTGCCTATTGTGTCAACAGGAAGTGGGG
B5: Table S4 A row 2246 (dsDNA)
DNA 1: AAAGCACGACCTTCCGGGACCGGAAGTGCCGGTCGA
DNA 2: TCGACCGGCACTTCCGGTCCCGGAAGGTCGTGCTTT
B6: Table S4 A row 1679 (dsDNA)
DNA 1: AGTGTTCACTTCCTGCCCTCCCATTTCCTGAAGGTC
DNA 2: GACCTTCAGGAAATGGGAGGGCAGGAAGTGAACACT
B7: Table S4 A row 1194 (dsDNA)
DNA 1: TCGGAACAGTGACTTCCGGCGGAAGAAGAAGCCGGT
DNA 2: ACCGGCTTCTTCTTCCGCCGGAAGTCACTGTTCCGA
B8: Table S4 A row 2224 (dsDNA)
DNA 1: GCACTTCCGCCAGAAGCCGGGTGTGTCCTTCCGGGC
DNA 2: GCCCGGAAGGACACACCCGGCTTCTGGCGGAAGTGC
B9: Table S4 A row 2168 (dsDNA)
DNA 1: CCGGCCTTCCACTTCCGGCGCGGAAGTTGGCGTCAC
DNA 2: GTGACGCCAACTTCCGCGCCGGAAGTGGAAGGCCGG
B10: Table S4 A row 2460 (dsDNA)
DNA 1: GGCTGGAAGGCACTTCCGGCGGAAGTTAGAGCTGGG
DNA 2: CCCAGCTCTAACTTCCGCCGGAAGTGCCTTCCAGCC
B11: Table S4 A row 2202 (dsDNA)
DNA 1: AGGGCGATTTCCGCTTTGTCGCGTTTCCTCAAGGCT
DNA 2: AGCCTTGAGGAAACGCGACAAAGCGGAAATCGCCCT

molecular target: T1, ETS1 x2; assay: gcPBM; 10 nM ETS1; conditions: tags: N-terminal GST (pDEST15), kept (PMC6008103); chain copies: 2; label: surface-attached array probe

In order of rising binding signal:
1. B5  28900 PBM fluorescence, median of replicate spots
2. B3  31500 PBM fluorescence, median of replicate spots
3. B7  32500 PBM fluorescence, median of replicate spots
4. B6  35600 PBM fluorescence, median of replicate spots
5. B11  37800 PBM fluorescence, median of replicate spots
6. B2  40400 PBM fluorescence, median of replicate spots
7. B10  42900 PBM fluorescence, median of replicate spots
8. B9  44800 PBM fluorescence, median of replicate spots
9. B8  49200 PBM fluorescence, median of replicate spots
10. B1  61600 PBM fluorescence, median of replicate spots
11. B4  67800 PBM fluorescence, median of replicate spots
